Assay results reported in PMC10786891, “Massively parallel profiling of RNA-targeting CRISPR-Cas13d”.

T1: EsCas13d, nuclease-dead (Eubacterium siraeum, UniProt B0MS50, R295A;H300A;R849A;H854A)
T1 sequence: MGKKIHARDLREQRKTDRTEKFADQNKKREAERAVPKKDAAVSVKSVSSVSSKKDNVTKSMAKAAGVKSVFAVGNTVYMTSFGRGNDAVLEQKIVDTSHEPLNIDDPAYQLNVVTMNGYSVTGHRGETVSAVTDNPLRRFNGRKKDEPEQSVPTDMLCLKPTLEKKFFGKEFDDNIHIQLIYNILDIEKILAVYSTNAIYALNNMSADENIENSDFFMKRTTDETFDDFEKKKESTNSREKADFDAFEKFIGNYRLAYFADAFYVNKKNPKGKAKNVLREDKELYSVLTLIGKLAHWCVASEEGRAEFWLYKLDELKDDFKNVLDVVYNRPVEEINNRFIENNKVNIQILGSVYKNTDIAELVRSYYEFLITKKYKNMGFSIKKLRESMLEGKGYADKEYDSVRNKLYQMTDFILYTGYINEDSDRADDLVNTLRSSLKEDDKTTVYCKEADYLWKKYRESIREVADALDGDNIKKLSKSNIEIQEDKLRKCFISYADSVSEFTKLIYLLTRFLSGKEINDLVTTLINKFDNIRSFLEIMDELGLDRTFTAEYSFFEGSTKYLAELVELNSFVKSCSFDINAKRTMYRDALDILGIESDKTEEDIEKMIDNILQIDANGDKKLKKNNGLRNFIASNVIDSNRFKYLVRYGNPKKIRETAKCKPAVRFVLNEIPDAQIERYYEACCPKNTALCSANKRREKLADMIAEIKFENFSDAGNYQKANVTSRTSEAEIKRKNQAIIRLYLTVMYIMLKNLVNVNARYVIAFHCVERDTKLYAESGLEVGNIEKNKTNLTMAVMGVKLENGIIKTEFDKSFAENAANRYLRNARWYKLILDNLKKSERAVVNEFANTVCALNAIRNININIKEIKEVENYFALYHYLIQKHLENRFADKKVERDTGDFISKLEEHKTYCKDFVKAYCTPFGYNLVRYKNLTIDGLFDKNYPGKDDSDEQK

B1: target 1 C4G,A14G (mixed)
RNA 1: CACCCGUGCAAAAAUGCAGGGGUCUAAAACUGAGCGGAUAACCUCUCUAUGG
RNA 2: GGGAAUGGAUCCACAUCUACGAAUUCGUACCAUAGAGGGGUUAUCCGGUCACCGAGAUCGGAAGAGCACACGU
B2: target 1 G13C,C22U (mixed)
RNA 1: CACCCGUGCAAAAAUGCAGGGGUCUAAAACUGAGCGGAUAACCUCUCUAUGG
RNA 2: GGGAAUGGAUCCACAUCUACGAAUUCGUAUCAUAGAGACGUUAUCCGCUCACCGAGAUCGGAAGAGCACACGU
B3: target 1 insA 3' of 3,insG 3' of 1 (mixed)
RNA 1: CACCCGUGCAAAAAUGCAGGGGUCUAAAACUGAGCGGAUAACCUCUCUAUGG
RNA 2: GGGAAUGGAUCCACAUCUACGAAUUCGUACCAUAGAGAGGUUAUCCGCUACAGCCGAGAUCGGAAGAGCACACGU
B4: target 1 insG 3' of 19,insC 3' of 3 (mixed)
RNA 1: CACCCGUGCAAAAAUGCAGGGGUCUAAAACUGAGCGGAUAACCUCUCUAUGG
RNA 2: GGGAAUGGAUCCACAUCUACGAAUUCGUACCAUGAGAGAGGUUAUCCGCUCCACCGAGAUCGGAAGAGCACACGU
B5: target 1 insA 3' of 22,insC 3' of 9 (mixed)
RNA 1: CACCCGUGCAAAAAUGCAGGGGUCUAAAACUGAGCGGAUAACCUCUCUAUGG
RNA 2: GGGAAUGGAUCCACAUCUACGAAUUCGUACACAUAGAGAGGUUACUCCGCUCACCGAGAUCGGAAGAGCACACGU
B6: target 1 A1C,G5U (mixed)
RNA 1: CACCCGUGCAAAAAUGCAGGGGUCUAAAACUGAGCGGAUAACCUCUCUAUGG
RNA 2: GGGAAUGGAUCCACAUCUACGAAUUCGUACCAUAGAGAGGUUAUCCUCUCCCCGAGAUCGGAAGAGCACACGU
B7: target 1 insU 3' of 17,insA 3' of 12 (mixed)
RNA 1: CACCCGUGCAAAAAUGCAGGGGUCUAAAACUGAGCGGAUAACCUCUCUAUGG
RNA 2: GGGAAUGGAUCCACAUCUACGAAUUCGUACCAUAGUAGAGGAUUAUCCGCUCACCGAGAUCGGAAGAGCACACGU
B8: target 1 G5C,U19C (mixed)
RNA 1: CACCCGUGCAAAAAUGCAGGGGUCUAAAACUGAGCGGAUAACCUCUCUAUGG
RNA 2: GGGAAUGGAUCCACAUCUACGAAUUCGUACCACAGAGAGGUUAUCCCCUCACCGAGAUCGGAAGAGCACACGU
B9: target 1 insA 3' of 3,insU 3' of 1 (mixed)
RNA 1: CACCCGUGCAAAAAUGCAGGGGUCUAAAACUGAGCGGAUAACCUCUCUAUGG
RNA 2: GGGAAUGGAUCCACAUCUACGAAUUCGUACCAUAGAGAGGUUAUCCGCUACAUCCGAGAUCGGAAGAGCACACGU
B10: target 1 insA 3' of 15,insG 3' of 14 (mixed)
RNA 1: CACCCGUGCAAAAAUGCAGGGGUCUAAAACUGAGCGGAUAACCUCUCUAUGG
RNA 2: GGGAAUGGAUCCACAUCUACGAAUUCGUACCAUAGAGAAGGGUUAUCCGCUCACCGAGAUCGGAAGAGCACACGU
B11: target 1 insC 3' of 17,insA 3' of 3 (mixed)
RNA 1: CACCCGUGCAAAAAUGCAGGGGUCUAAAACUGAGCGGAUAACCUCUCUAUGG
RNA 2: GGGAAUGGAUCCACAUCUACGAAUUCGUACCAUAGCAGAGGUUAUCCGCUACACCGAGAUCGGAAGAGCACACGU
B12: target 1 U3A,U11G (mixed)
RNA 1: CACCCGUGCAAAAAUGCAGGGGUCUAAAACUGAGCGGAUAACCUCUCUAUGG
RNA 2: GGGAAUGGAUCCACAUCUACGAAUUCGUACCAUAGAGAGGGUAUCCGCACACCGAGAUCGGAAGAGCACACGU
B13: target 1 insA 3' of 7 (mixed)
RNA 1: CACCCGUGCAAAAAUGCAGGGGUCUAAAACUGAGCGGAUAACCUCUCUAUGG
RNA 2: GGGAAUGGAUCCACAUCUACGAAUUCGUACCAUAGAGAGGUUAUCACGCUCACCGAGAUCGGAAGAGCACACGU
B14: target 1 U10C,U19A (mixed)
RNA 1: CACCCGUGCAAAAAUGCAGGGGUCUAAAACUGAGCGGAUAACCUCUCUAUGG
RNA 2: GGGAAUGGAUCCACAUCUACGAAUUCGUACCAAAGAGAGGUCAUCCGCUCACCGAGAUCGGAAGAGCACACGU
B15: target 1 insC 3' of 18,insG 3' of 7 (mixed)
RNA 1: CACCCGUGCAAAAAUGCAGGGGUCUAAAACUGAGCGGAUAACCUCUCUAUGG
RNA 2: GGGAAUGGAUCCACAUCUACGAAUUCGUACCAUACGAGAGGUUAUCGCGCUCACCGAGAUCGGAAGAGCACACGU
B16: target 1 C7G,U8G (mixed)
RNA 1: CACCCGUGCAAAAAUGCAGGGGUCUAAAACUGAGCGGAUAACCUCUCUAUGG
RNA 2: GGGAAUGGAUCCACAUCUACGAAUUCGUACCAUAGAGAGGUUAGGCGCUCACCGAGAUCGGAAGAGCACACGU
B17: target 1 insC 3' of 19,insC 3' of 13 (mixed)
RNA 1: CACCCGUGCAAAAAUGCAGGGGUCUAAAACUGAGCGGAUAACCUCUCUAUGG
RNA 2: GGGAAUGGAUCCACAUCUACGAAUUCGUACCAUCAGAGAGCGUUAUCCGCUCACCGAGAUCGGAAGAGCACACGU
B18: target 1 insG 3' of 18,insA 3' of 13 (mixed)
RNA 1: CACCCGUGCAAAAAUGCAGGGGUCUAAAACUGAGCGGAUAACCUCUCUAUGG
RNA 2: GGGAAUGGAUCCACAUCUACGAAUUCGUACCAUAGGAGAGAGUUAUCCGCUCACCGAGAUCGGAAGAGCACACGU
B19: target 1 insA 3' of 3,insC 3' of 1 (mixed)
RNA 1: CACCCGUGCAAAAAUGCAGGGGUCUAAAACUGAGCGGAUAACCUCUCUAUGG
RNA 2: GGGAAUGGAUCCACAUCUACGAAUUCGUACCAUAGAGAGGUUAUCCGCUACACCCGAGAUCGGAAGAGCACACGU
B20: target 1 U11G,C22A (mixed)
RNA 1: CACCCGUGCAAAAAUGCAGGGGUCUAAAACUGAGCGGAUAACCUCUCUAUGG
RNA 2: GGGAAUGGAUCCACAUCUACGAAUUCGUAACAUAGAGAGGGUAUCCGCUCACCGAGAUCGGAAGAGCACACGU
B21: target 1 G17U,U19A (mixed)
RNA 1: CACCCGUGCAAAAAUGCAGGGGUCUAAAACUGAGCGGAUAACCUCUCUAUGG
RNA 2: GGGAAUGGAUCCACAUCUACGAAUUCGUACCAAAUAGAGGUUAUCCGCUCACCGAGAUCGGAAGAGCACACGU
B22: target 1 insC 3' of 11,insG 3' of 8 (mixed)
RNA 1: CACCCGUGCAAAAAUGCAGGGGUCUAAAACUGAGCGGAUAACCUCUCUAUGG
RNA 2: GGGAAUGGAUCCACAUCUACGAAUUCGUACCAUAGAGAGGUCUAUGCCGCUCACCGAGAUCGGAAGAGCACACGU
B23: target 1 C7U,G17U (mixed)
RNA 1: CACCCGUGCAAAAAUGCAGGGGUCUAAAACUGAGCGGAUAACCUCUCUAUGG
RNA 2: GGGAAUGGAUCCACAUCUACGAAUUCGUACCAUAUAGAGGUUAUUCGCUCACCGAGAUCGGAAGAGCACACGU
B24: target 1 C2A,C6A (mixed)
RNA 1: CACCCGUGCAAAAAUGCAGGGGUCUAAAACUGAGCGGAUAACCUCUCUAUGG
RNA 2: GGGAAUGGAUCCACAUCUACGAAUUCGUACCAUAGAGAGGUUAUCAGCUAACCGAGAUCGGAAGAGCACACGU
B25: target 1 insC 3' of 14,insA 3' of 8 (mixed)
RNA 1: CACCCGUGCAAAAAUGCAGGGGUCUAAAACUGAGCGGAUAACCUCUCUAUGG
RNA 2: GGGAAUGGAUCCACAUCUACGAAUUCGUACCAUAGAGACGGUUAUACCGCUCACCGAGAUCGGAAGAGCACACGU
B26: target 1 insU 3' of 14,insA 3' of 7 (mixed)
RNA 1: CACCCGUGCAAAAAUGCAGGGGUCUAAAACUGAGCGGAUAACCUCUCUAUGG
RNA 2: GGGAAUGGAUCCACAUCUACGAAUUCGUACCAUAGAGAUGGUUAUCACGCUCACCGAGAUCGGAAGAGCACACGU
B27: target 1 C7A,A16C (mixed)
RNA 1: CACCCGUGCAAAAAUGCAGGGGUCUAAAACUGAGCGGAUAACCUCUCUAUGG
RNA 2: GGGAAUGGAUCCACAUCUACGAAUUCGUACCAUAGCGAGGUUAUACGCUCACCGAGAUCGGAAGAGCACACGU
B28: target 1 insC 3' of 20,insA 3' of 17 (mixed)
RNA 1: CACCCGUGCAAAAAUGCAGGGGUCUAAAACUGAGCGGAUAACCUCUCUAUGG
RNA 2: GGGAAUGGAUCCACAUCUACGAAUUCGUACCACUAGAAGAGGUUAUCCGCUCACCGAGAUCGGAAGAGCACACGU

molecular target: T1, EsCas13d, nuclease-dead; experiment: crRNA (strand 1, pre-loaded); Mg2+; 40 mM Tris-HCl pH 7.5, 150 mM NaCl, 6 mM MgCl2, 1 mM DTT, 0.1% Tween-20, 0.2 mg/ml BSA; 25 C; 10 min per concentration, then washed; settings: tags: His6-TwinStrep-SUMO cleaved; N-terminal SNAP kept (SNAP-Surface 488); label: 3' end held by stalled T7 RNA polymerase

Going from B1 to B2, the Kd rises from 13.2 ± 1.2 nM to 62 ± 19 nM (4.7-fold).

Compared with B3, B4 is 11-fold higher in Kd: 5.69 ± 0.25 nM for the first, 62 ± 8 nM for the second. The first binds more tightly here.

First: B5
Second: B6
The Kd of the first is 2.3-fold lower: 14.4 ± 0.6 nM for the first, 33 ± 4 nM for the second. The first binds more tightly here.

B7 and B8 are within error of each other in Kd: 37 ± 6 nM for the first, 32 ± 6 nM for the second.

B9 and B10 are within error of each other in Kd: 9.2 ± 0.5 nM for the first, 10.6 ± 1.2 nM for the second.

Compared with B11, B12 is 4.3-fold lower in Kd: 53 ± 8 nM for the first, 12.2 ± 0.7 nM for the second. The second binds more tightly here.

First: B13
Second: B14
The Kd of the first is 18-fold lower: 5.49 ± 0.21 nM for the first, 100 ± 40 nM for the second.

Compared with B15, B16 is 3.2-fold lower in Kd: 36.8 ± 2.2 nM for the first, 11.5 ± 0.9 nM for the second.

B17 and B18 are within error of each other in Kd: 49 ± 15 nM for the first, 46 ± 6 nM for the second.

Going from B19 to B20, the Kd rises from 23 ± 4 nM to 39 ± 8 nM (1.7-fold). The first binds more tightly here.

Going from B21 to B22, the Kd rises from 36.8 ± 2.9 nM to 64 ± 8 nM (1.7-fold).

First: B23
Second: B24
The Kd of the first is 4.1-fold higher: 19.7 ± 1.8 nM for the first, 4.84 ± 0.28 nM for the second.

Compared with B25, B26 is 1.5-fold lower in Kd: 49 ± 5 nM for the first, 32.2 ± 3 nM for the second. The second binds more tightly here.

Compared with B27, B28 is 6.6-fold lower in Kd: 56.1 ± 2.7 nM for the first, 8.5 ± 0.8 nM for the second.
